Results from PMC10113246.
Positions count from the first letter of the chain named.

What was measured:
Test in all cases: SPR
Design in all cases: unit not given here
Conditions in all cases: SPR DBD-TD: 25 mM HEPES pH 7.5, 200 mM NaCl, 0.5 mM TCEP, 0.005% Tween-20, SPR DBD: 10 mM HEPES pH 7.5, 150 mM NaCl, 0.2 mM TCEP
[1] = molecular target: T1, p63 DBD Y192C Y231C (UniProt Q9H3D4)
T1 sequence: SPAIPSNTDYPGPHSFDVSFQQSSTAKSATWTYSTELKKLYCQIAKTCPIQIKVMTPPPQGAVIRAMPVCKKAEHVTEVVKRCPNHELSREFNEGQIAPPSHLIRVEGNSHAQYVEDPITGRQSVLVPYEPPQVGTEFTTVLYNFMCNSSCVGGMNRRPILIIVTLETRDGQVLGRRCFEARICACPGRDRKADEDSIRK

[2] = molecular target: T2, p63 DBD R280S R319S (UniProt Q9H3D4)
T2 sequence: T1 sequence with C70Y, R158S

[3] = molecular target: T3, p63 DBD R304W R343W (UniProt Q9H3D4)
T3 sequence: T1 sequence with C70Y, R182W

[4] = molecular target: T4, p63 DBD V202M V241M (UniProt Q9H3D4)
T4 sequence: T1 sequence with C70Y, V80M

[5] = molecular target: T5, p63 DBD R298Q R337Q (UniProt Q9H3D4)
T5 sequence: T1 sequence with C70Y, R176Q

[6] = molecular target: T6, p63 DBD I172A I211A (UniProt Q9H3D4)
T6 sequence: T1 sequence with I50A, C70Y

[7] = molecular target: T7, p63 DBD R204W R243W (UniProt Q9H3D4)
T7 sequence: T1 sequence with C70Y, R82W

[8] = molecular target: T8, p63 DBD R279H R318H (UniProt Q9H3D4)
T8 sequence: T1 sequence with C70Y, R157H

[9] = molecular target: T9, p63 DBD H208Y H247Y (UniProt Q9H3D4)
T9 sequence: T1 sequence with C70Y, H86Y

[10] = molecular target: T10, p63 DBD WT (UniProt Q9H3D4)
T10 sequence: T1 sequence with C70Y

[11] = molecular target: T11, p63 DBD R227Q R266Q (UniProt Q9H3D4)
T11 sequence: T1 sequence with C70Y, R105Q

[12] = molecular target: T12, p63 DBD-TD K193E K232E (UniProt Q9H3D4)
T12 sequence: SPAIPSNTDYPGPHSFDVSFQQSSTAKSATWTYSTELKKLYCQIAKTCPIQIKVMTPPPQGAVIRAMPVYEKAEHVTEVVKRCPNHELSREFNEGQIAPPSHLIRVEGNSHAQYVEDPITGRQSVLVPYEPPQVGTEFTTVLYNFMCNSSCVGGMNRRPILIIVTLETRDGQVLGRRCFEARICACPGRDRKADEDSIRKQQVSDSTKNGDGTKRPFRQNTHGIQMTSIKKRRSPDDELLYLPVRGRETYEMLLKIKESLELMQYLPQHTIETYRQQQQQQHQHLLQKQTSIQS

[13] = molecular target: T13, p63 DBD-TD R227Q R266Q (UniProt Q9H3D4)
T13 sequence: T12 sequence with E71K, R105Q

[14] = molecular target: T14, p63 DBD-TD R298Q R337Q (UniProt Q9H3D4)
T14 sequence: T12 sequence with E71K, R176Q

[15] = molecular target: T15, p63 DBD-TD R280S R319S (UniProt Q9H3D4)
T15 sequence: T12 sequence with E71K, R158S

[16] = molecular target: T16, p63 DBD-TD R304W R343W (UniProt Q9H3D4)
T16 sequence: T12 sequence with E71K, R182W

[17] = molecular target: T17, p63 DBD-TD R280H R319H (UniProt Q9H3D4)
T17 sequence: T12 sequence with E71K, R158H

[18] = molecular target: T18, p63 DBD-TD WT (UniProt Q9H3D4)
T18 sequence: T12 sequence with E71K

Sequence | Kd [1] | Kd [2] | Kd [3] | Kd [4] | Kd [5] | Kd [6] | Kd [7] | Kd [8] | Kd [9] | Kd [10] | Kd [11] | Kd [12] | Kd [13] | Kd [14] | Kd [15] | Kd [16] | Kd [17] | Kd [18]
TTTTTTTTTTTAAACATGTTTAAACATGTTT / AAACATGTTTAAACATGTTT [20 bp p63 consensus sequence (SPR)] | 1240 | 351000 | 220 | 83300 | 90.8 | 33.7 | 510 | 202 | 2060 | 30.4 | 120 | – | – | – | – | – | – | –
TTTTTTTTTTTGAACATGTCCCAACATGTTG / CAACATGTTGGGACATGTTC [p21 response element (SPR)] | – | – | – | – | – | – | – | – | – | – | – | 9920 | 515 | 435 | 11800 | 27000 | 1120 | 67.9
